B1: Clone 19 anti-PD-1 antibody (antibody, V domains shown)
VH: QVQLQQSGAELVKPGASVKMSCKAFGYTFTTYPIEWMKQNHGKSLEWIGNFHPYNDDTKYNEKFKGKAKLTVEKSSTTVYLELSRLTSDDSAVYYCARENYGSHGGFVYWGQGTLVTV
VL: ENVLTQSPAIMSASPGEKVTMTCRASSSVISSYLHWYQQKSGASPKLWIYSTSNLASGVPDRFSGSGSGTSYSLTISSVEAEDAATYYCQQYNGYPLTFGAGTKLEIK
B2: Clone 10 anti-PD-1 antibody (antibody, V domains shown)
VH: DVQLQESGPGLVKPSQSLSLTCTVTGYSITSDYAWNWIRQFPGNKLEWMGYINYSGSTSYNPSLKSRISITRDTSKNQFFLQLNSVTTEDTATYYCARWIGSSAWYFDVWGAGTTVTV
VL: DVLMTQTPLSLPVSLGDQASISCRSGQNIVHSNGNTYLEWYLQKPGQSPKLLIYKVSNRFFGVPDRISGSGSGTDFTLKISRVEAEDLGVYFCFQGSHVPFTFGSGTKLEIK
B3: Clone 2 anti-PD-1 antibody (antibody, V domains shown)
VH: QVQLQQPGAELVKPGASVKLSCKASGYTFTTYYLYWVRQRPGQGLEWIGGINPSNGGTNFNEKFKSKATLTVDKSSSTAYMQLNSLTSEDSAVYYCTRRDYRYDRGFDYWGQGTSVTV
VL: DIVLTQSPASLAVSLGQRATISCRASKSVSTSGFNYIHWYQQKPGQPPKLLIYLASNLESGVPARFSGSGSGTDFTLNIHPVEDEDAATYYCQHSRELPLTFGAGTKLEIK

This note sets out measurements from patent US20110171220A1 (published 2011).

For the assay, the target named is Monomeric soluble human PD-1 (human, UniProt Q15116 25-170). In words: SPR; pH 7.4. In general terms: Surface plasmon resonance follows binding to a sensor surface in real time, without labels.
Chain of Monomeric soluble human PD-1 (Q15116 25-170): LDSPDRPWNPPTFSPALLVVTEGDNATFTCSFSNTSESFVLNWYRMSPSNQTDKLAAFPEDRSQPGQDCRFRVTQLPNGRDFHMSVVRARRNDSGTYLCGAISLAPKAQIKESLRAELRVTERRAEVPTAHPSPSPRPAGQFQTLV
With B1, the koff (commonly a measure of how fast the partners let go of each other) was ~0.0013 s⁻¹.
As to B2, the koff is ~0.4 s⁻¹.
With B3, the koff is ~0.0027 s⁻¹.
